# Earlier results in article PMC6070697.
# Tests used:
# Experiment in all cases: kinetics
# Settings in all cases: enzyme turning over with acetyl-CoA and an amine substrate
# Glu26 = system: Glu26
# Glu47 = Glu47 (UniProt position 82, FFFKDEPLNTF)
# Glu34 = Glu34 (UniProt position 34, HYYPEEPLTAG)
substance,measurement,setting,value
Arylalkylamine N-acetyltransferase like 7 (Dm-AANATL7) (Drosophila melanogaster),pKa,Glu26,approximately pH 7.5
Arylalkylamine N-acetyltransferase A (Dm-AANATA; dopamine N-acetyltransferase) (Drosophila melanogaster),pKa,Glu47,approximately pH 7.5
Agmatine N-acetyltransferase (Dm-AgmNAT; formerly Dm-AANATL8) (Drosophila melanogaster),pKa,Glu34,approximately pH 7.5
